Results on 9 molecules are retold here after patent publication US20250042994A1 (HAINAN SIMCERE ZAIMING PHARMACEUTICAL, published 2025).

In one assay the target is T1, human CD19 on Raji cells (human, UniProt P15391 20-556).
T1 construct: whole, on cells
T1 sequence (looked up): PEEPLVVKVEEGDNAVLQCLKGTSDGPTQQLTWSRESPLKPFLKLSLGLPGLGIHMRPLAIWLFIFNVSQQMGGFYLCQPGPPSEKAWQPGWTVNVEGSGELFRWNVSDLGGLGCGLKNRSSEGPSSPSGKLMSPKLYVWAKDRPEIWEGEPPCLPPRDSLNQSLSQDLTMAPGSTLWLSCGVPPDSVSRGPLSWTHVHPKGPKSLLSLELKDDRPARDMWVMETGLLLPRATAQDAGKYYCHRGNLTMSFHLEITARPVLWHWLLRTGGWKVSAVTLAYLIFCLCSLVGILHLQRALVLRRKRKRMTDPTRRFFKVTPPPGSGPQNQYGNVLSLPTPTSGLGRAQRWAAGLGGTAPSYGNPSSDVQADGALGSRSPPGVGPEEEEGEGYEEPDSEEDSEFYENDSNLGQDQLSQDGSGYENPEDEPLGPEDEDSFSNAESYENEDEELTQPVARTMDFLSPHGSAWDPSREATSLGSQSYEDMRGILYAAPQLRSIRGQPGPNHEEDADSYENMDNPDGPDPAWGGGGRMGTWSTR
Kind of assay: FACS on Raji cells. The source says: (§1) The desired cells were scale-up cultured in a T-75 cell culture flask to the logarithmic growth phase. For the adherent cell CHO-K1, the medium was aspirated, the cells were washed 2 times with a PBS buffer, and then digested with trypsin. After the digestion was terminated, the cells were washed 2 times with a PBS buffer; and for suspension cell Raji, the supernatant of the medium was discarded by directly centrifugation, and the cell pellet was washed 2 times with PBS. After counting the cells in the previous step, the cell pellet was resuspended with [PBS+2% (w/w) BSA] blocking solution to 2×10⁶ cells/ml, and added to a 96-well FACS reaction plate at 50 μl/well, and then the sample to be tested was added at 50 μl/well, and incubated on ice for 2 h. The obtained mixture was centrifuged and washed 3 times with a PBS buffer. […] The obtained mixture was centrifuged and washed 5 times with a PBS buffer, and FACS (FACS Canto™, purchased from BD Company) was used for detection and result analysis. Data analysis was performed by software (FlowJo) to obtain the mean fluorescence intensity (MFI) of the cells. And then software (GraphPad Prism8) was used for analysis, data fitting, and EC50 value calculation. […] The same method was used to detect the binding of the chimeric antibodies to endogenous CD19-negative cells, MoLT4 cells (purchased from ATCC, CRL-1582), and CHO-K1 cells.

For assay [1], the target named is T2, human CD19 on CHO-K1-human CD19 cells (human, UniProt P15391 20-556).
T2 construct: whole, on cells; also called CHO-K1-human CD19-2C8
T2 sequence (looked up): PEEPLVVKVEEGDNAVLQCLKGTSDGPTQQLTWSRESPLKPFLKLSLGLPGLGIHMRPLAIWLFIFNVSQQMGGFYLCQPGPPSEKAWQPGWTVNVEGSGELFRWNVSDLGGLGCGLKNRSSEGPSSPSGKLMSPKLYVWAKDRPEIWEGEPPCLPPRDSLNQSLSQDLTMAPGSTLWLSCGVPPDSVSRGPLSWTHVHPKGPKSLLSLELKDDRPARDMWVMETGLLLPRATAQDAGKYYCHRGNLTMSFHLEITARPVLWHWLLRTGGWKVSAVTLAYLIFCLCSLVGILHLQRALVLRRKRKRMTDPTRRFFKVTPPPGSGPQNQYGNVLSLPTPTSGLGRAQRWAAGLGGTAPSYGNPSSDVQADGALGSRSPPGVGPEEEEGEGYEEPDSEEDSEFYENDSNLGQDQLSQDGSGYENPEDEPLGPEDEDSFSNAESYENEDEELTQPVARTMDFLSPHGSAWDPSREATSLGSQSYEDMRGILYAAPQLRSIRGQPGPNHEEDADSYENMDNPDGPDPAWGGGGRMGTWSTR
The experiment in a line: FACS on CHO-K1-human CD19 cells.
From the text: as §1

Assay [2] has as its target T3, monkey CD19 on HEK293T-monkey CD19 cells (monkey).
T3 construct: whole, on cells
The experiment in a line: FACS on HEK293T-monkey CD19 cells. Here is the method:
as §1, with “After” for “The desired cells were scale-up cultured in a T-75 cell culture flask to the logarithmic growth phase. For the adherent cell CHO-K1, the medium was aspirated, the cells were washed 2 times with a PBS buffer, and then digested with trypsin. After”
HEK293T-monkey CD19 cells were subjected to FACS detection and data analysis according to the method in example 5.2. […] The same method was used to detect binding of the chimeric antibodies to HEK293T cells.

The target of a further assay is T4, Human CD19-his protein (human, UniProt P15391 20-291).
T4 construct: bought protein; also called recombinant human CD19-His; CD19 full-length protein; not shown: His tag
T4 sequence (looked up): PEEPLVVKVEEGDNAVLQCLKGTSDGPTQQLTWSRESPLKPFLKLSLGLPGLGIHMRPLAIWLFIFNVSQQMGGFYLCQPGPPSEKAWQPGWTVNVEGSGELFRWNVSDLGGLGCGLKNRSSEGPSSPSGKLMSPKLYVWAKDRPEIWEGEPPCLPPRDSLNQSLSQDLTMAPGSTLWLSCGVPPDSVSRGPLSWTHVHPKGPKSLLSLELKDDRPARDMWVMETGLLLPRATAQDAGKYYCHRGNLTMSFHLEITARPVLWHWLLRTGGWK
Kind of assay: SPR Biacore, Ab captured on Protein A, CD19-His analyte. Here is the method:
A sample buffer and a running buffer were HBS-EP+ (10 mM HEPES, 150 mM NaCl, 3 mM EDTA and 0.05% surfactant P20) (GE Healthcare; BR-1006-69). The flow-through cell was set to 25° C. The sample block was set to 16° C. Both were pretreated with the running buffer. In each cycle, an antibody to be detected was first captured with a Protein A chip, and then a single concentration of CD19 antigen protein was injected. The binding and dissociation processes of the antibody and the antigen protein were recorded, and finally Glycine pH 1.5 (GE Healthcare; BR-1003-54) was used to complete chip regeneration. The binding was measured by injecting different concentrations of recombinant human CD19-His proteins in a solution for 240 s with a flow rate of 30 μl/min. The concentration started from 200 nM (see the detailed results for the actual concentration in the test) and was diluted at 1:1, making a total of 5 concentrations. The dissociation phase was monitored for up to 600 s and was triggered by switching from sample solution to running buffer. The surface was regenerated by washing with a 10 mM glycine solution (pH 1.5) for 30 s at a flow rate of 30 μl/min. Bulk refractive index difference was corrected by subtracting the response obtained from the goat anti-human Fc surface. Blank injection was also subtracted (=double reference). For calculation of apparent KD and other kinetic parameters, Langmuir 1:1 model was used.
(In SPR one partner is held on a chip, and binding of the other changes the refractive index at the surface.)

B1: F6.5.20 (antibody, human IgG1, V domains shown)
VH: QVQLQQPGAELVKPGASVKLSCKASGYTFTSYWMQWVKQRPGQGLEWIGEIDPSDSYTNYNQKFKGKASLTVDTSSSTAYMQLSSLTSEDSAVYYCARWGLLRNYYVMDYWGQGTSVTVSS
VL: EIVLTQSPTTMAASPGEKITITCSASSSISSNYLHWYQQKPGFSPKLLIYRTSNLASGVPARFSGSGSGTSYSLTIGTMEAEDVATYYCQQGSSIPRMLTFGAGTKLELK
notes: human-murine chimeric antibody, human IgG1
As a reminder, the EC50 is the concentration giving half of the maximal effect. For B1, the figures for the EC50 (with human CD19 on Raji cells; in assay [1]) were 0.17 nM and approximately 0.17 nM, respectively. For the same molecule, the “Maximum mean fluorescence intensity” value came out at 28600 with human CD19 on Raji cells, 48300 in assay [1] and 531 in assay [2].

B2: F5.11.2 (antibody, human IgG1, V domains shown)
VH: EVQLVESGGDLVKPGGSLKLSCAASGFTFSSYGMSWVRQTPDKRLEWVATISHGGSYTHYPDSVKGRFTISRDNAKNTLYLQMNSLKSEDTAMYYCVRLPITTVEAPYFFDYWGQGTTLTVSS
VL: DIQMTQTTSSLSASLGDRVTISCRASQDIRNYLNWYQQKPDGTVKLLIYYTSILHSGVPSRFSGSGSGTDYSLTINNLEQEDVATYFCQQGNTLYTFGGGTEVELR
notes: human-murine chimeric antibody, human IgG1 constant
Broadly, the Kd is the concentration at which binding is half-saturated. The koff is the first-order rate constant of dissociation. As usually defined, the kon is the second-order rate constant of association. In the assay with Human CD19-his protein, B2 came in with a Kd of 1.68 nM, a koff of 6.15e-05 s⁻¹ and a kon of 36600 M⁻¹ s⁻¹.

B3: F6.2.9 (antibody, human IgG1, V domains shown)
VH: QVQLQQSGAELVKPGASVKISCKASGYAFSSYWMNWVKQRPGKGLEWIGQIYPGDGDTNYNGKFKGKATLTADKSSSTGYMQLSSLTSEDSAVYFCARSRITSVVDWYFDVWGTGTTVTVSS
VL: QIVLSQSPAILSASPGEKVTMTCRASSSVSYMHWYQQKPGSSPKPWIYATSNLASGVPARFSGSGSGTSYSLTISRVEAEDAATYYCQQWSSNPPTFGAGTKLELK
notes: as for B1
Consider B3, for which the values for the EC50 (with human CD19 on Raji cells; in assay [2]) were 0.98 nM and 86 nM, respectively. Besides, the “Maximum mean fluorescence intensity” value with human CD19 on Raji cells was 21500; in assay [1], 10300; in assay [2] it was 2130.

B4: F4.15.9 (antibody, human IgG1, V domains shown)
VH: QVQLQQSGPELVKPGASVKISCKASGYAFSSSWMNWLKQRPGQGLEWIGRIYPGDGDTNYNGKFKGKATLTADESSSTAYMQLSSLTSVDSAVYFCARGITTIITIAWFASWGQGTLVTVSA
VL: QIVLSQSPTILSASPGEKVTMTCRASSSVSYMHWYQQKPGSSPKPWIYATSNLASGVPPRFSGSGSGTSYSLTISRVGAEDAATYYCQQWSSDPWTFGGGTKLEIK
notes: as for B1
B4: the EC50 with human CD19 on Raji cells is 0.71 nM; in assay [1], 0.17 nM. Besides, the figures for the “Maximum mean fluorescence intensity” value (in the assay with human CD19 on Raji cells; in assay [1]; in assay [2]) were 31300, 20500 and 14800, respectively.

B5: F3.23.10 (antibody, human IgG1, V domains shown)
VH: EFQLQQSGPELVKPGASVKISCKASDYSFTDYNMNWVKQSNGASLEWIGIINPNFGSTSYNQKFKGKATLTVDQSSSTAFMQLNSLTSEDSAVYYCARSEYYGSSGFAYWGQGTLVTVSA
VL: DVVVTQTPLSLPVSFGDQVSISCRSSQSLVNSYGNTYLSWYLHKPGQSPQLLIYGISNRFSGVPDRFSGSGSGTDFTLKITTIKPEDLGMYYCLQGTHQPWTFGGGTKLEIK
notes: as for B2
With B5, in the assay with Human CD19-his protein, binding was characterised by a dissociation constant (Kd) of 5.24 nM, the koff turned out to be 0.000186 s⁻¹ and the kon amounted to 35400 M⁻¹ s⁻¹.

B6: F3.23.10 (antibody, human IgG1, V domains shown)
VH: EFQLQQSGPELVKPGASVKISCKASDYSFTDYNMNWVKQSNGASLEWIGIINPNFGSTSYNQKFKGKATLTVDQSSSTAFMQLNSLTSEDSAVYYCARSEYYGSSGFAYWGQGTLVTVSA
VL: DVVVTQTPLSLPVSFGDQVSISCRSSQSLVNSYGNTYLSWYLHKPGQSPQLLIYGISNRFSGVPDRFSGSGSGTDFTLKITTIKPEDLGMYYCLQGTHQPWTFGGGTKLEIK
notes: as for B1
B6: the EC50 was 4.77 nM with human CD19 on Raji cells and 3.59 nM in assay [1]. In addition, the entries for the “Maximum mean fluorescence intensity” value (with human CD19 on Raji cells; in assay [1]; in assay [2]) were 14900, 50400 and 77, respectively.

B7: F5.7.1 (antibody, human IgG1, V domains shown)
VH: QVTLKESGPGILQPSQTLSLTCSFSGFSLTTFGMGVGWIRQPSGKGLEWLTHIWWDDDKYYNPALKSRLTISKDTSKNQVFLRIANVDTADTATYYCARVITTGVPYFDYWGQGTTLTVSS
VL: ENVLTQSPAIMSASPGEKVTMTCRASSSVSSSYLYWYQQKSGASPKLWISSTSNLASGVPARFSGSGSGTSYSLTINSVEAEDAATYYCQQYSGYPWTFGGGTKLEIK
notes: as for B1
B7: the EC50 with human CD19 on Raji cells came out at 1.13 nM; in assay [1] it was 1.54 nM. For the same molecule, the “Maximum mean fluorescence intensity” value stood at 28700 with human CD19 on Raji cells, 56200 in assay [1] and 938 in assay [2].

B8: F4.145.9 (antibody, human IgG1, V domains shown)
VH: EVQLVESGGGLVKPGGSLKLSCAAAGFAFSSYDMSWVRQIPEKRLEWVAYISAGGGNTYFLDTVKGRFTISRDHAKNTLSLQMSSLKSEDTAMYFCVRHGDYYRYFYAMDYWGQGSSVTVSS
VL: DIVMTQSHKFMSTSVGDRVSITCKASQDVGTAVAWSQQKPGQSPKLLIYWASTRHTGVPDRFTGSGSGTDFTLTISNVQSEDLADYFCQQFVTYPYTFGGGTKLEIK
notes: as for B1
For B8, the values for the EC50 (with human CD19 on Raji cells; in assay [1]) were 0.78 nM and 0.84 nM, respectively. Moreover, the “Maximum mean fluorescence intensity” value turned out to be 20000 with human CD19 on Raji cells, 48500 in assay [1] and 108 in assay [2].

B9: F4.125.12 (antibody, human IgG1, V domains shown)
VH: EVKLVESGGGLVQPGGSLKLSCAASGFTFSTYTMSWVRQTPEKRLEWVAFISSGGGHINYPDTVKGRFTISRDNAKNTLYLQMSSLKSEDTAMYYCARHSYWFFDVWGAGTTVTVSS
VL: DVQITQSPSYLAASPGETITINCRASKNIDTYLAWYQEKPGKTNKLLIYSGSTLQSGIPSRFRGGGSGTDFTLTICSLEPEDFAMYYCQQHNEYPLTFGAGTKLELK
notes: as for B1
As for B9, the values for the EC50 (with human CD19 on Raji cells; in assay [1]) were 0.51 nM and 0.48 nM, respectively. Besides, the “Maximum mean fluorescence intensity” value is 27100 in the assay with human CD19 on Raji cells, 51800 in assay [1] and 4080 in assay [2].
